± gives the half width of the 95% confidence interval.
Experiment: folding stability dG unfold (combined trypsin and chymotrypsin); higher = more stable
Method: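 Folding stability of de novo designed mini-proteins (<80 aa, no Cys; designed by TrROS, TrMRF, ProteinMPNN and the joint model) was measured by cDNA display proteolysis with trypsin and chymotrypsin. Each protease was used at 11 concentrations in a threefold dilution series plus a no-protease condition. K50 was inferred by Bayesian fitting of sequencing counts, and dG unfold was derived against a sequence-predicted unfolded-state K50 (Tsuboyama et al. method). Sequences shown include variable-length N-terminal GS-type padding (SAGGSAGG...) inside a display construct carrying a PA tag. Rows were kept only if the AF2 dimer inter-PAE was >15, to exclude likely homo-oligomers.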

Sequence | folding stability dG unfold [kJ/mol]
SAGGSAGGSAGGKSPLEKLRELAKKNPNVTVYVEKTGKEVKVPSIEELLEKGYKIVKIEKSAGGSAGGSAGG [r7_504_TrROS_Hall] | < -4.18
SAGGSAGGSNIKDALDNFPPGYQTDVDPNSGTISVRFPDEGWEHQIEIPAEEGKVEINEWKPYSAGGSAGGS [r12_82_TrROS] | < -4.18
SAGGSAGGSKIKIEDIHPNPNGMFMFRIRPPDNGKPREVPFDSPEDAERFADELEEDGYKIEISAGGSAGGS [r20_177_TrROS] | < -4.18
SAGGSAGGSAGITITQNPDGPVRIMWKHPNGKPVNEGDIKPDEAEKFADKNGMRPVSIEPSAGGSAGGSAGG [r11_521_TrROS] | < -4.18
SAGGIWIDNPDQILDQIKENPNQPRTIQVPMDPDNGQIPPDIKKALKEPGMPVQHDPNGYMTFKIPPSAGGS [r16_335_TrROS] | < -4.18
SAGGFPISIERWDPDGKKRRREIPMDDPDEIKEFLDDLPPDRPVRIHMPNPQHFNALKNAGFDEVEMMSAGG [r13_476_TrROS] | < -4.18
SAGGMIIDDPDALLDAIKENPNTPLVFLVPTDPATGTVDPAVIDAVVEPGFPVERDPDGYVRFIFPKSAGGS [r16_335_TrMRF] | < -4.18
SAGGSAGGGNTPRPRPRSVVTKLNVSPDTVPPEELKAKHPDIEVSYSPNSLTARVPVNGELVESSAGGSAGG [r6_739_JUSTAS] | < -4.18
SAGSPADVVPLEIPFVTEDGSRVRATLLYDPATGEVTVPIETEDPALGRRAAAFARRLAEELGAPDVRPSAG [r5_99_TrMRF] | < -4.18
SAGGSAGGSAMTLLSEKEVPGTDLTIKYVEEKLPGERVIRTLTIKKNSVVEEKEFPVGELPSAGGSAGGSAG [r3_48_JUSTAS] | < -4.18
SAGGSAGGSAGGPEPIPVKISMWNPNGKPMGTFEFPIETPEDLDEFAREDGMPFRVEPESAGGSAGGSAGGS [r10_958_TrROS] | < -4.18
SAGSASPVVLKLTDPSSDKTYLVEVEVPEEEATWTLRDPSNGKEVEKVKMTLEELYAELKKKGLNPEPLSAG [r5_291_JUSTAS] | < -4.18
SAGGSAGGITVTIDMNEGYYRIKVEYPGNGKKREIPISGPPDDLASELEDEFGYPVKDVEIEKWSAGGSAGG [r6_763_TrROS] | < -4.18
SAGGSAGGSANFDINIEPHPDKDYLVITVTIPPGMPPGQKVRTWVIDPPDGKILEPEPIKIPDSAGGSAGGS [r12_564_TrROS] | < -4.18
SAGGSAGGSSPKRTIEITLPKDASEEELQATANAIAKELGAPNVQVEVSPVPEDYRLVKVIVESAGGSAGGS [r20_208_JUSTAS] | < -4.18
SAGGSAGGSAGGMVLELEGLGEEEIKALVREIPEDEPVTFVIKSKNNKTSVIPSEEILESAGGSAGGSAGGS [r10_732_JUSTAS] | < -4.18
SAGGSAGGSEIEIMAPFKSPEDARDQIREFAREKGLEIKPKKIEVHRNPNGWQWVTFKIEIKDSAGGSAGGS [r12_924_TrROS] | < -4.18
SAGGSAGGSASSTTVPLEIPAPEGAVVELTFPDGTTVKATVTPRPDGSYTLKVGNGEIVAPRSAGGSAGGSA [r18_372_JUSTAS] | < -4.18
SAGGSMTLYVRLPDRTVEADEVTVPPNGPALVRYRITDPEGEEPEIVVEPEELAELFGLTPEEIEGSAGGSA [r2_262_TrMRF] | < -4.18

Sequence | folding stability dG unfold [kJ/mol]
SAGGSAGGSAGMVETTSEEEAAAVIAEARAAGVPVTLVLKNPDGTTVTTPVEVVVPPDAPSAGGSAGGSAGG [r17_462_JUSTAS] | < -4.18
SAGFDFPEDFTPIARDGVNSLWQGDGPVLLALRGPEGGSAVLPFKPGNPEEIFPLIEALAAGGVVDPSFSAG [r14_12_TrMRF] | < -4.18
SAGGSAGGSAGGMEVREVVEETPETLVVRTVRFYPDGSVEVLEEERIPLPPPELTPRNLLSAGGSAGGSAGG [r11_843_JUSTAS] | < -4.18
SAGDALKEAAKNGKPAELPIRFHFYQIKEPERDKDGGPRYKMKPIHTVEFPIRVDKVDPGNGDIKIDMPSAG [r5_5_TrROS] | < -4.18
SGKVVGEKTYPVSDGSEGPAKATRDPDSLTFTITNKKGEVIKTIKVPKNAGVEKVFDIKVSPDEFKGLNLSA [r9_215_JUSTAS] | < -4.18
SAGGSAGGMKTEVVEETVPLRNEDGKLLPSDALLETELPDKKVLTLVERDPNSDTVKTTRVILESAGGSAGG [r6_659_JUSTAS] | < -4.18
SAGGSAGGSAGGMTTTVIEVDVEPGEVSEEEIKKRLAPLTGKPIEITTDPSGIPVITVEESAGGSAGGSAGG [r7_330_JUSTAS] | < -4.18
SAGYELKILKAEVKDGEIDIPILHPDGRPSTARIKVELVEGEDGIPRPVLKIEIPEEELKNSIPPELLKSAG [r5_462_TrMRF] | < -4.18
SAGGSAGGSAGGSTVLRLERVPGTGLLVERLVTPSGSGYSVEVTVRPVGEEEREALPLGSAGGSAGGSAGGS [r10_291_JUSTAS] | < -4.18
SAGGSAGGNWETIPIKGDPKQMVDEAREENPRNVRIYNPNNGKKHEFPPGLPLDDFPGMYVQRRSAGGSAGG [r6_858_TrROS] | < -4.18
SAGGSAGGSLKPGAPVMYRIRNPENGRKFPFQIKIKEDGGIDIEYPSNGKTMTIPPDNIEPVPSAGGSAGGS [r12_726_TrROS] | < -4.18
SAGGSAGGSAGWEMLRMIKENAKPGKPTTITIHPNFPMEEINKELIEDAPIDDVEYTPMPSAGGSAGGSAGG [r11_524_TrROS] | < -4.18
SAGGSAGGSAGVDFFKAPDGSEYAVVVARGKDADIPVLTRVDDGNDALAERFGLPKEKIGSAGGSAGGSAGG [r11_1039_TrMRF] | < -4.18
SAGGSAGGSAGGDADKALPVGFELVEAETVELGDNPVLLVRLKGKNGEQLLLVPPDAPISAGGSAGGSAGGS [r10_968_TrMRF] | < -4.18
SAGMQTKTLAETKENGKITVTTLTTTESGEETTVTETIEVGPVPIPPLTVEVRLRPDGRLEFEYHIPLSAGG [r19_172_JUSTAS] | -3.6 ± 2.13
SAGGSAGGSAGWFYRIEIPHPNGRKRTHYVPDPEEAEDELKEEFGIPPENVKIEPIPPNDSAGGSAGGSAGG [r17_169_TrROS] | < -4.18
SAGGIRIRPGQKIEDIEFEVEKNPDGEPPIKVKIRWPDKGKPHTYTMTPGQDVGNFADKNGWPIEVVSAGGS [r16_676_TrROS] | < -4.18
SAGGGMEIVTTKESTLPEDVKVKESTTTFPDGTSIKTVTLTSPKPGDTKTITIPVKPGGPGLSTTVTESAGG [r13_323_JUSTAS] | < -4.18
SAGGPMREYTIKLPGKKITINEMPNPNGNEMTQVSVRDGGEPKRPVNMPNDNADEFAKKPGIKPDDIVSAGG [r13_108_TrROS] | < -4.18

Sequence | folding stability dG unfold [kJ/mol]
SAGGSAMPVKIELVERKRDPNSDTYYATVKITNPNKTITLPIKLDVPEEEAEKEVKEKAEEIAKKGSAGGSA [r15_979_JUSTAS] | < -4.18
SAGGSAGGSAGGKIKLAAANPKVAKELAKILEKELEEKGYKLKPNLKIEVLPAKPDPKLASAGGSAGGSAGG [r7_965_TrMRF] | < -4.18
SAGGMSPNQKVTIEIDNWHPGPGGNYFNVRIRNPGNGKPREINGPGDNPEDMKKEIEELVKAGPIEIYSAGG [r13_286_TrROS] | < -4.18
SAGGSAGGSAGGDKKAIEELVKKLPPDTKLAPVKLPDGKEKLIFVERREDGSRKALVLDSAGGSAGGSAGGS [r10_1017_TrMRF] | < -4.18
PEPGAVETRETDYIDPNNNNKYKATITTTRDPNSDLATVNTTIKLPNGETLNYSATINPNPGTVTSTTSISS [r1_144_JUSTAS] | -2.63 ± 2.01
SAGGSAGEKTLKIVIEGKDKEKVVKEAKPLLEKLFGAKEIKVKVEPLPDGGYKVPIEITVPPGAAKSAGGSA [r15_173_TrMRF] | < -4.18
SAGGSAGGSAGGGMKKITISDPVKPGAVITFPLTGETITVPANSSVTITLTEPLPGTYDLSAGGSAGGSAGG [r7_234_JUSTAS] | < -4.18
SAGGSAGGSAGGIEVDPDYAMITFPIPPNETIKFKLPNEKLKIEVPPGKPISIYIPAKDSAGGSAGGSAGGS [r10_464_TrROS] | < -4.18
SAGGSAPFQIKEPDGKTETFPMNDIPPDLIKNFPDVKITMPGGQERKIPPGQKLSPGGMMTIQIPKSAGGSA [r15_733_TrROS] | < -4.18
SAGGSAGGSSHMEVEKAAKELSSEVGFEKSSNGPDSVSFTFDPAKPELVRALAEKFGIDLKVESAGGSAGGS [r12_74_JUSTAS] | < -4.18
SAGGSAGGSAREITIMVPPDDPNLTIEEAKDLLQPWGIKKVEIEPHPDGYYIVEIRVPPGLSAGGSAGGSAG [r3_335_TrROS] | < -4.18
SAGGMKAKIIPFTVAGGAYEPETGELKKPVPVKVTLIEVEPEPDVKVEEIAEEFEKAFPGKGVIVAPSAGGS [r8_30_TrMRF] | < -4.18
SAGGSAGGSASSTVLETEEEPVGKVTTEKVLVPRPDGTPVLRTKLVYRPKDGSLTSETTSLSAGGSAGGSAG [r3_94_JUSTAS] | < -4.18
SAGGSMKPSELANLIAEKLREKVDPNKTVRIVLEVGEGPVEFEIPSGKKIDIPENVPIKGYKVEVGSAGGSA [r2_391_TrMRF] | < -4.18
SAGGSAGGIKIDPNIKEITWHQNPNGMFYHTIKVDEGKKVAPVRFPPDQPPEQMWDNAKEALKESAGGSAGG [r6_436_TrROS] | < -4.18
SMTITLEKTLPDGSKVTITIPITKVPGKPLYKATVTVTTTKPGGTPSSKTYTFDFTSEEEAVEKAKEILASA [r9_337_JUSTAS] | > 25.1
SAGGSAGGSAGKRIIINMPAEQAIDWAREMLPPNQPIEIFNPDHGKTREFPIPPPSPDEKSAGGSAGGSAGG [r11_163_TrROS] | < -4.18
SAGGSAGGSPKWKVEPIGNRIRIMIPDGPYYTARLPDDVKLDLDEGKFKFPPGLEVEPVPLKESAGGSAGGS [r20_158_TrROS] | < -4.18
SAGGSAGGSAGWRVRVSFPNGNKIEIDEIPPDDEGMTPDQLADEIQKEFPGNGIEVEPVPSAGGSAGGSAGG [r17_42_TrROS] | < -4.18
